Source: patent publication US20140274782A1, “AFFINITY REAGENTS AND METHODS FOR DETECTION, PURIFICATION, AND PROTEOMIC ANALYSIS OF METHYLATED PROTEINS” (The Board of Trustees of the Leland Stanford Junior …, priority 2013, published 2014)

T1: G9a and GLP (Homo sapiens, UniProt Q96KQ7+Q9H9B1)
T1 sequence (Q96KQ7 2-1210 limits assumed): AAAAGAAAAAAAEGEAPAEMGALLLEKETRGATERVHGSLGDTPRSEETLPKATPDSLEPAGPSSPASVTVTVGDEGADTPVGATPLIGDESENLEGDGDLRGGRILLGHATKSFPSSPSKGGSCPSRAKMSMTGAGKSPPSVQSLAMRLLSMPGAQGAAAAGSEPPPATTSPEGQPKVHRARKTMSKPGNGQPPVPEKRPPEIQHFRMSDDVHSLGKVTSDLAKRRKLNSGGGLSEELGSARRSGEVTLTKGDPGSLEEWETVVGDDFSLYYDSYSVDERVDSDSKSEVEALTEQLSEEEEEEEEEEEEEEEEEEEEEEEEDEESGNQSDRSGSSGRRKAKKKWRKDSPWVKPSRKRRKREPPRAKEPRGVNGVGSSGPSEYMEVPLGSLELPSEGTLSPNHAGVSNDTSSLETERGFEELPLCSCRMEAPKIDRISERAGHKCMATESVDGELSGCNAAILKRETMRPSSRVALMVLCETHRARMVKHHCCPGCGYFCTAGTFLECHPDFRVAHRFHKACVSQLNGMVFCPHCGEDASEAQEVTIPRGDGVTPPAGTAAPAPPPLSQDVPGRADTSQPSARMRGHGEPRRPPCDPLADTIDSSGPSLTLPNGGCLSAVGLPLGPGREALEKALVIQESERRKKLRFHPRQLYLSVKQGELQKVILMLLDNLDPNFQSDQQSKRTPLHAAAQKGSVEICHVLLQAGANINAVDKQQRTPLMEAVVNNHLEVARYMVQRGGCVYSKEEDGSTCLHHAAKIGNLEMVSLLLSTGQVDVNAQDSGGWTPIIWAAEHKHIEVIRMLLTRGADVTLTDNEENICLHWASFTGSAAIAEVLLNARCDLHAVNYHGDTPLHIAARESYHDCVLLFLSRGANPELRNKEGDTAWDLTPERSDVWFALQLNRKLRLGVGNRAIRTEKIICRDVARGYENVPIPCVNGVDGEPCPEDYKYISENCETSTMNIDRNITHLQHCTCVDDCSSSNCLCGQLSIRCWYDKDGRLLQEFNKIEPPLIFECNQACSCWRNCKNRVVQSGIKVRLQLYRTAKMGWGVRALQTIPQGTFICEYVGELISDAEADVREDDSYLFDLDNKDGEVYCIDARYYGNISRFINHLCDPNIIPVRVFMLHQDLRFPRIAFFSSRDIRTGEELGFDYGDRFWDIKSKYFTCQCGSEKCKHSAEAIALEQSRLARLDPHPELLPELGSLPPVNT
T1 sequence (Q9H9B1 2-1298 limits assumed): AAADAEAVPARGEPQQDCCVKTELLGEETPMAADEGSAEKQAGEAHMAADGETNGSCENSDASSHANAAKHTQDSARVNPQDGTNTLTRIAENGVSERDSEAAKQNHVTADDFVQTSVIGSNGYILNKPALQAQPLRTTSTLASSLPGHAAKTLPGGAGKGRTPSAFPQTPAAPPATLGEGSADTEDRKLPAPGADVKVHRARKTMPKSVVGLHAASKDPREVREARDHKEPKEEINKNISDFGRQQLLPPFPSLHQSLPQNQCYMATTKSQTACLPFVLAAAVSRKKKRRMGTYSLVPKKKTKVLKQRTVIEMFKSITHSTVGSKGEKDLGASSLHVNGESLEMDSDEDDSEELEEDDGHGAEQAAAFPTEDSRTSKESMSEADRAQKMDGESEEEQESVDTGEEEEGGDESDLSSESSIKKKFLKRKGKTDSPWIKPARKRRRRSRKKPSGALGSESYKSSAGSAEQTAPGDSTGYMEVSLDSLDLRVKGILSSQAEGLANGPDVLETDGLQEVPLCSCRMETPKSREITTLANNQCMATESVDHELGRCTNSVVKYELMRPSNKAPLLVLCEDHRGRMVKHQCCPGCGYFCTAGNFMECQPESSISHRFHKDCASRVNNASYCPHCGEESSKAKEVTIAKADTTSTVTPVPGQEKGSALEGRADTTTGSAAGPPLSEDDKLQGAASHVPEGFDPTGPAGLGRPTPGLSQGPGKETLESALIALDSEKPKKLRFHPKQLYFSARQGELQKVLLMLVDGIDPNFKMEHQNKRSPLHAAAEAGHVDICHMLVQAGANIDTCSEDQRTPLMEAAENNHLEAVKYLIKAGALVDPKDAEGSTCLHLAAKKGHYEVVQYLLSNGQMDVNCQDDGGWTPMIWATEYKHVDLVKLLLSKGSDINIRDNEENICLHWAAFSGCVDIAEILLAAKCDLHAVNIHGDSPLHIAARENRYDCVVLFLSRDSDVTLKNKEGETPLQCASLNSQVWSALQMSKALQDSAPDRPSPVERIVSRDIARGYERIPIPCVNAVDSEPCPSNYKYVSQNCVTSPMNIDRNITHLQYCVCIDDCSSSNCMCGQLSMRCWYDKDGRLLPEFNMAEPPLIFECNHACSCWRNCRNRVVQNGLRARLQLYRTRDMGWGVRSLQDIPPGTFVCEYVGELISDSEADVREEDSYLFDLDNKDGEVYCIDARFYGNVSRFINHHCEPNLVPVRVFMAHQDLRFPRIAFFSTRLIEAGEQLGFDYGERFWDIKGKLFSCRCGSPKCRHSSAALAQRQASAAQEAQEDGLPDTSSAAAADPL


Legend:
[1] = tested on: 3×MBT domain of L3MBTL1; test: Triple SILAC pull-down, 3xMBT/3xMBTD355N ratio (cytoplasmic, nuclear and chromatin fractions of 293T cells); format: binding, human; settings: SILAC ratio 3xMBT vs 3xMBTD355N pull-down, 293T cells, all values in log base 2; for 3xMBT/D355N UNC Heavy: experiment with UNC0638 in heavy SILAC media; for 3xMBT/D355N UNC Light: experiment with UNC0638 in light SILAC media;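 as to all read-outs here: proteins quantified with MaxQuant, requiring at least two unique peptides and quantification in both label directions, normalized to the mean of proteins from a digested loading control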
[2] = molecular target: T1, G9a and GLP; test: Triple SILAC pull-down after UNC0638 treatment of 293T cells, DMSO/UNC0638 ratio of protein captured by 3×MBT; format: cell-based; set-up: endogenous in cells; host or cells: HEK 293T; settings: all values in log base 2; for Relative to UNC0638 UNC Heavy / Relative to UNC0638 UNC Light: SILAC ratio DMSO relative to UNC0638, pull-down with 3xMBT; for Relative to UNC0638 UNC Heavy: UNC0638 in heavy SILAC media; for Relative to UNC0638 UNC Light: UNC0638 in light SILAC media; for Relative to UNC0638 Average: average of UNC Light and UNC Heavy experiments;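 as to all read-outs here: mass spectrometry (Q-Exactive) SILAC quantitation, DMSO/UNC0638 ratio computed after subtracting 3×MBTD355N mutant pull-down background, only proteins with at least twofold 3×MBT over mutant signal considered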

| Molecule | 3xMBT/D355N UNC Heavy [1] | 3xMBT/D355N UNC Light [1] | Relative to UNC0638 UNC Heavy [2] | Relative to UNC0638 UNC Light [2] | Relative to UNC0638 Average [2] |
| --- | --- | --- | --- | --- | --- |
| MAP4 (protein, UniProt P27816 2-1152, looked up) Microtubule-associated …: ADLSLADALTEPSPDIEGEIKRDFIATLEAEAFDDVVGETVGKTDYIPLLDVDEKTGNSESKKKPCSETSQIEDTPSSKPTLLANGGHGVEGSDTTGSPTEFLEEKMAYQEYPNSQNWPEDTNFCFQPEQVVDPIQTDPFKMYHDDDLADLVFPSSATADTSIFAGQNDPLKDSYGMSPCNTAVVPQGWSVEALNSPHSESFVSPEAVAEPPQPTAVPLELAKEIEMASEERPPAQALEIMMGLKTTDMAPSKETEMALAKDMALATKTEVALAKDMESPTKLDVTLAKDMQPSMESDMALVKDMELPTEKEVALVKDVRWPTETDVSSAKNVVLPTETEVAPAKDVTLLKETERASPIKMDLAPSKDMGPPKENKKETERASPIKMDLAPSKDMGPPKENKIVPAKDLVLLSEIEVAQANDIISSTEISSAEKVALSSETEVALARDMTLPPETNVILTKDKALPLEAEVAPVKDMAQLPETEIAPAKDVAPSTVKEVGLLKDMSPLSETEMALGKDVTPPPETEVVLIKNVCLPPEMEVALTEDQVPALKTEAPLAKDGVLTLANNVTPAKDVPPLSETEATPVPIKDMEIAQTQKGISEDSHLESLQDVGQSAAPTFMISPETVTGTGKKCSLPAEEDSVLEKLGERKPCNSQPSELSSETSGIARPEEGRPVVSGTGNDITTPPNKELPPSPEKKTKPLATTQPAKTSTSKAKTQPTSLPKQPAPTTIGGLNKKPMSLASGLVPAAPPKRPAVASARPSILPSKDVKPKPIADAKAPEKRASPSKPASAPASRSGSKSTQTVAKTTTAAAVASTGPSSRSPSTLLPKKPTAIKTEGKPAEVKKMTAKSVPADLSRPKSTSTSSMKKTTTLSGTAPAAGVVPSRVKATPMPSRPSTTPFIDKKPTSAKPSSTTPRLSRLATNTSAPDLKNVRSKVGSTENIKHQPGGGRAKVEKKTEAAATTRKPESNAVTKTAGPIASAQKQPAGKVQIVSKKVSYSHIQSKCGSKDNIKHVPGGGNVQIQNKKVDISKVSSKCGSKANIKHKPGGGDVKIESQKLNFKEKAQAKVGSLDNVGHLPAGGAVKTEGGGSEAPLCPGPPAGEEPAISEAAPEAGAPTSASGLNGHPTLSGGGDQREAQTLDSQIQETSI | 1.41 log base 2 | 2.75 log base 2 | 0.13 log base 2 | 0.03 log base 2 | 0.08 log base 2 |
| UBAP2L (protein, UniProt Q14157 1-1087, looked up) Ubiquitin-associated protein …: MMTSVGTNRARGNWEQPQNQNQTQHKQRPQATAEQIRLAQMISDHNDADFEEKVKQLIDITGKNQDECVIALHDCNGDVNRAINVLLEGNPDTHSWEMVGKKKGVSGQKDGGQTESNEEGKENRDRDRDYSRRRGGPPRRGRGASRGREFRGQENGLDGTKSGGPSGRGTERGRRGRGRGRGGSGRRGGRFSAQGMGTFNPADYAEPANTDDNYGNSSGNTWNNTGHFEPDDGTSAWRTATEEWGTEDWNEDLSETKIFTASNVSSVPLPAENVTITAGQRIDLAVLLGKTPSTMENDSSNLDPSQAPSLAQPLVFSNSKQTAISQPASGNTFSHHSMVSMLGKGFGDVGEAKGGSTTGSQFLEQFKTAQALAQLAAQHSQSGSTTTSSWDMGSTTQSPSLVQYDLKNPSDSAVHSPFTKRQAFTPSSTMMEVFLQEKSPAVATSTAAPPPPSSPLPSKSTSAPQMSPGSSDNQSSSPQPAQQKLKQQKKKASLTSKIPALAVEMPGSADISGLNLQFGALQFGSEPVLSDYESTPTTSASSSQAPSSLYTSTASESSSTISSNQSQESGYQSGPIQSTTYTSQNNAQGPLYEQRSTQTRRYPSSISSSPQKDLTQAKNGFSSVQATQLQTTQSVEGATGSAVKSDSPSTSSIPPLNETVSAASLLTTTNQHSSSLGGLSHSEEIPNTTTTQHSSTLSTQQNTLSSSTSSGRTSTSTLLHTSVESEANLHSSSSTFSTTSSTVSAPPPVVSVSSSLNSGSSLGLSLGSNSTVTASTRSSVATTSGKAPPNLPPGVPPLLPNPYIMAPGLLHAYPPQVYGYDDLQMLQTRFPLDYYSIPFPTPTTPLTGRDGSLASNPYSGDLTKFGRGDASSPAPATTLAQPQQNQTQTHHTTQQTFLNPALPPGYSYTSLPYYTGVPGLPSTFQYGPAVFPVAPTSSKQHGVNVSVNASATPFQQPSGYGSHGYNTGVSVTSSNTGVPDISGSVYSKTQQSFEKQGFHSGTPAASFNLPSALGSGGPINPATAAAYPPAPFMHILTPHQQPHSQILHHHLQQDGQTGSGQRSQTSSIPQKPQTNKSAYNSYSWGAN | 2.82 log base 2 | 1.83 log base 2 | 0.22 log base 2 | −0.06 log base 2 | 0.08 log base 2 |
| UBTF (protein, UniProt P17480 1-764, looked up) Nucleolar transcription …: MNGEADCPTDLEMAAPKGQDRWSQEDMLTLLECMKNNLPSNDSSKFKTTESHMDWEKVAFKDFSGDMCKLKWVEISNEVRKFRTLTELILDAQEHVKNPYKGKKLKKHPDFPKKPLTPYFRFFMEKRAKYAKLHPEMSNLDLTKILSKKYKELPEKKKMKYIQDFQREKQEFERNLARFREDHPDLIQNAKKSDIPEKPKTPQQLWYTHEKKVYLKVRPDATTKEVKDSLGKQWSQLSDKKRLKWIHKALEQRKEYEEIMRDYIQKHPELNISEEGITKSTLTKAERQLKDKFDGRPTKPPPNSYSLYCAELMANMKDVPSTERMVLCSQQWKLLSQKEKDAYHKKCDQKKKDYEVELLRFLESLPEEEQQRVLGEEKMLNINKKQATSPASKKPAQEGGKGGSEKPKRPVSAMFIFSEEKRRQLQEERPELSESELTRLLARMWNDLSEKKKAKYKAREAALKAQSERKPGGEREERGKLPESPKRAEEIWQQSVIGDYLARFKNDRVKALKAMEMTWNNMEKKEKLMWIKKAAEDQKRYERELSEMRAPPAATNSSKKMKFQGEPKKPPMNGYQKFSQELLSNGELNHLPLKERMVEIGSRWQRISQSQKEHYKKLAEEQQKQYKVHLDLWVKSLSPQDRAAYKEYISNKRKSMTKLRGPNPKSSRTTLQSKSESEEDDEEDEDDEDEDEEEEDDENGDSSEDGGDSSESSSEDESEDGDENEEDDEDEDDDEDDDEDEDNESEGSSSSSSSSGDSSDSDSN | 2.47 log base 2 | 1.93 log base 2 | 0.49 log base 2 | −0.29 log base 2 | 0.10 log base 2 |
